This is an account of results in patent publication US9624471B2, “Methods for maturing cardiomyocytes and uses thereof” (UNIVERSITY OF WASHINGTON THROUGH ITS CENTER FOR …, priority 2013, dated 2017).

Data set [1] relates to RUES2-CMs. Put plainly: Immunocytochemistry (α-actinin staining) and morphological analysis of lentivirally transduced cardiomyocytes. It counts as cell-based, human. The settings on record: Lin28a OE CMs compared to EV control. As to the method: Undifferentiated human embryonic stem cell (hESCs) lines H7 (NIHhESCC-10-0061) and RUES2 (NIHhESC-09-0013) were expanded using mouse embryonic fibroblast-conditioned medium with 5 ng/ml basic fibroblast growth factor. H7-CMs were derived using previously reported protocols^1-3. RUES2-CMs were used for all functional analyses and these were derived using a cardiac progenitor cell differentiation protocol^4 derived from previously reported monolayer directed differentiation methods^1, 5, 6. In brief, this involves the induction of a monolayer of hESCs with activin A and bone morphogenetic protein-4 (BMP4) under serum- and insulin-free conditions. During the early stages of differentiation, the cells were also exposed to the Wnt agonist CHIR 99021 followed by the Wnt antagonist Xav939. From 7 days of in vitro differentiation, the cells were fed every alternate day with serum-free RPMI-B27 plus insulin media. After 20 days of in vitro differentiation, the cells were trypsinized and replated. Only those cell preparations that had at least 70% cardiac troponin T-positive CMs (as observed by flow cytometry) were used for further experiments. For experiments where the H7-CMs were cultured for around a year, the cells were replated after the 3rd and 11th month from day 0. At the 11th month, FACS analysis for cTnT was conducted and the CMs were split into three parts and were cultured as three independent replicates for another 1.5 months after which they were harvested for RNA extraction. IMR90iPSC-CMs cultured for 1 yr were replated at day 20 and split every 2 months for 12 months before harvesting for RNA extraction. To generate engineered cardiac tissue, the inventors used the procedure reported by Tulloch et al.^2 In brief, day 20 CMs are suspended in the collagen gel at 10,000/μl, and rod-shaped constructs of 25 μl (1 mm radius×8 mm length) were generated by casting in a preformed mold and warming to 37° C. The ends of the mold contain Velcro-like micro-fiber loops, and these become impregnated with gel+cell mixture. These tabs allow the constructs to be maintained under static tension, which facilitates alignment and differentiation of the CMs. The constructs were maintained in the serum-free RPMI-B27 plus glutamine media up to 2 weeks. For let-7 overexpression analysis, the CMs were transduced with the virus carrying the pLKO-let-7 or empty vector control pLKO plasmid at day 12 of the directed differentiation protocol. After overnight transduction the virus was removed, cells were rinsed with PBS and new media added. The samples were analyzed at day 30 from the initiation of differentiation.
All morphological analyses were carried out using at least 50 cells. Cells replated in chamber slides were fixed in 4% paraformaldehyde for 15 minutes followed by PBS wash. The fixed cells were blocked for an hour with 1.5% normal goat serum and incubated O/N with mouse alpha actinin (sigma) primary antibody. The primary antibody was rinsed with PBS and incubated with secondary antibody (Alexa fluor 488 [Goat anti mouse]) for an hour followed by nuclear staining using DAPI. For cell area and perimeter measurements, images were acquired and processed using ZEISS™ AXIO fluorescent microscope and AXIOVISION™ software. For sarcomere length, images were acquired and processed using LEICA™ TCS-SPE confocal microscope and LEICA™ software. These confocal images were used to select 1-2 myofibrils per cell with at least ten continuous, well-recognized alpha-actinin bands and divided the length value by the number of sarcomeres. The images were further analyzed using IMAGE J™ software.
For lenti-let-7 OE constructs, Pri-miR-let-7i and pri-miR-let-7g sequence was amplified from H7 genomic DNA using forward primer for let-7i-TCCGCGTGGTCCCGT; reverse primer for let-7i-ATTGTCCTCCGCGGCGC and forward primer for let-7g-AGAGTTCCTCCAGCGCTCC; reverse primer for let-7g-CCCCACTTGGCAGCTGGC, resulting in 153 bp and 154 bp products, respectively. […]

For data set [2], the system named is RUES2-CMs. The data set is described as follows: mRNA and miRNA qPCR analysis in transduced RUES2-CMs. The settings on record: Lin28a OE hESC-CMs. It counts as cell-based, human. As to the method:
Undifferentiated human embryonic stem cell (hESCs) lines H7 (NIHhESCC-10-0061) and RUES2 (NIHhESC-09-0013) were expanded using mouse embryonic fibroblast-conditioned medium with 5 ng/ml basic fibroblast growth factor. H7-CMs were derived using previously reported protocols^1-3. RUES2-CMs were used for all functional analyses and these were derived using a cardiac progenitor cell differentiation protocol^4 derived from previously reported monolayer directed differentiation methods^1, 5, 6. In brief, this involves the induction of a monolayer of hESCs with activin A and bone morphogenetic protein-4 (BMP4) under serum- and insulin-free conditions. During the early stages of differentiation, the cells were also exposed to the Wnt agonist CHIR 99021 followed by the Wnt antagonist Xav939. From 7 days of in vitro differentiation, the cells were fed every alternate day with serum-free RPMI-B27 plus insulin media. After 20 days of in vitro differentiation, the cells were trypsinized and replated. Only those cell preparations that had at least 70% cardiac troponin T-positive CMs (as observed by flow cytometry) were used for further experiments. For experiments where the H7-CMs were cultured for around a year, the cells were replated after the 3rd and 11th month from day 0. […] The samples were analyzed at day 30 from the initiation of differentiation. […]
For orientation: Quantitative PCR measures a nucleic acid by following its amplification.

A further data set deals with HECT293FT cells. The data set is described as follows: Lipofectamine transient transfection of plko-let-7g and plko-let-7g-E plasmids, mature let-7g and target expression after 24 hrs. The settings on record: 24 hrs after transfection. It counts as cell-based. Here is the method: FIGS. 20A-20B Modified let-7g (let-7g-E) is more efficient in generating mature let-7g in HECT293FT cells. Let-7g and a modified version of let-7g (plko-let-7g-E) were induced in hect 293 FT cells by introducing plko-let-7g and plko-let-7g-E plasmids with lipofectamine transient transfection assay. 24 hrs after transfection, cells were tested for mature let-7g expression. […] (FIG. 20B) Targets of let-7 are repressed when we over-express let-7g-E similar to that seen during over-expression of let-7g.

B1: Lin28a: Lin28a over-expressed in RUES2-CMs; LIN28 is the negative regulator of let-7 processing (protein, UniProt Q9H9Z2 2-209, looked up)
Protein lin-28 homolog A: GSVSNQQFAGGCAKAAEEAPEEAPEDAARAADEPQLLHGAGICKWFNVRMGFGFLSMTARAGVALDPPVDVFVHQSKLHMEGFRSLKEGEAVEFTFKKSAKGLESIRVTGPGGVFCIGSERRPKGKSMQKRRSKGDRCYNCGGLDHHAKECKLPPQPKKCHFCQSISHMVASCPLKAQQGPSAQGKPTYFREEEEEIHSPTLLPEAQN
B1: in the data set on RUES2-CMs [1], the cell area result is recorded as “significant decrease”, the circularity index entry is reported as “increase” and the sarcomere length entry was “significant decrease”. Further, the cell perimeter result in the data set on RUES2-CMs [1] (N=50 cells per condition) is recorded as “significant decrease”. For the same molecule, the “let-7i and let-7g expression” value in the data set with RUES2-CMs [2] was “down-regulated”.

B2: let-7g-E: modified hsa-let-7g with mutated GGAG LIN28 binding motif, SEQ ID NO: 12 (also SEQ ID NO: 16) (nucleic acid, listed as Homo sapiens)
chain: AGGCUGAGGUAGUAGUUUGUACAGUUUGAGGGUCUAUGAUACCACCCGGUACAUCAGAUAACUGUACAGGCCACUGCCUUGCCA
modifications: listed as RNA, chemistry not fully specified
Consider B2, for which, in the data set with HECT293FT cells, the “Targets of let-7 expression” value is recorded as “repressed”. Moreover, the “mature let-7g expression” value in the data set on HECT293FT cells (compared to EV and native let-7g) was “much higher expression”.
